Experimental data: patent US20150125450A1 (published 2015)

Columns and labels:
human TNF-α = human TNF-α (human, UniProt P01375 77-233); assay: cell-based or functional assay
human TNF-β = molecular target: T1, human TNF-β (human, UniProt P01374 35-205, limits assumed); assay: Western blotting, reducing conditions
T1 sequence (looked up): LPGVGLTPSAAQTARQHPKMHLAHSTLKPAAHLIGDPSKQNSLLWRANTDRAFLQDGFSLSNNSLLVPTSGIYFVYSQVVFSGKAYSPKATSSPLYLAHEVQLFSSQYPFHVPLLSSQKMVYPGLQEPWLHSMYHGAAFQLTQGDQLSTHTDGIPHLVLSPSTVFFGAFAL

murine TNF-α = molecular target: T2, murine TNF-α (murine, UniProt P06804 80-235); assay: Western blotting, reducing conditions
T2 sequence (looked up): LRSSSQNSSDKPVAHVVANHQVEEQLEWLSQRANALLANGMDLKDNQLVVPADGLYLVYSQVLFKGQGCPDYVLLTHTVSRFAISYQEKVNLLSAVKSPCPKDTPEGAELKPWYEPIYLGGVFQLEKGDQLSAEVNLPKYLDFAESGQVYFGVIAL

murine IL-6 = molecular target: T3, murine IL-6 (murine, UniProt P08505 25-211); assay: Western blotting
T3 sequence (looked up): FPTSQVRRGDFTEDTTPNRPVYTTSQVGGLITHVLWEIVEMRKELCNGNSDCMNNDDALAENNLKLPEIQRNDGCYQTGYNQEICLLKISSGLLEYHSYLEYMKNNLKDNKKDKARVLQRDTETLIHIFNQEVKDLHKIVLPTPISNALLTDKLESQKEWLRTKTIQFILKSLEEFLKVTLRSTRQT

human IL-6 = human IL-6 (human, UniProt P05231 30-212); assay: cell-based or functional assay
Cynomolgus monkey TNF-α = Cynomolgus monkey TNF-α (Cynomolgus monkey, UniProt P79337 77-233); assay: ELISA
Cynomolgus monkey TNF-α, sequence (P79337 77-233 limits assumed): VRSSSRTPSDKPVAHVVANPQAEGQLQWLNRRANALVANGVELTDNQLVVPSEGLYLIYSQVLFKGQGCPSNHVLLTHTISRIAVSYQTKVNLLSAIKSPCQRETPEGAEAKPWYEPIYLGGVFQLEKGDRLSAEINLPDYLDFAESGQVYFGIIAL

human TNF-α, sequence (P01375 77-233 limits assumed): as the sequence (P79337 77-233 limits assumed) above, with V37L, T44R, N72T, L138R counted along it

B1: 4C9 mouse anti-human TNF-α monoclonal antibody (antibody, mouse IgG1, V domains shown)
VH: VQLQESGPSLVKPSQTLSLTCSVTGDSITSGFWNWIRKFPGNKFEYMGYISYSGRTYYNPSLKSRLSITRDTSKNQFYLQLNSVTAEDTATYYCARDANYVLDYWGQGTTLTVSS
VL: DIQLTQSPSSLAMSVGQKVTMNCKSSQSLLNSSTQKNYLAWFQQKPGQSPKLLVYFASARESGVPDRFIGSGSGTDFTLTISSVQAEDLADYFCQQHYRTPFTFGSGTKLEIKR
notes: Murine IgG1/kappa; 4C9D11 and 4C9D11G11 are subclones of 4C9; also called 4C9D11; 4C9D11G11
- EC50, inhibition of TNF-α-induced cytotoxicity, L929 cells, MTS (human TNF-α): 0.0112 µg/mL
- binding result (human TNF-β): no binding
- binding result (murine TNF-α): no binding

B2: 2-3B2 mouse monoclonal antibody against human IL-6 (antibody, V domains shown)
VH: VKLQESGGGLVQPGGSRKLSCAASGFTFSRFGMHWVRQAPEKGLEWVAYIGRGSSTIYYADTVKGRFTISRDNPKNTLFLQMTSLRSEDTAMYYCARSNWDGAMDYWGQGTSVTVSS
VL: DIQLTQSPASLSASVGETVTITCRASGNIHNFLAWYQQKQGKSPQLLVYNAETLADGVPSRFSGSGSGTQYSLKINSLQPEDFGSYYCQHFWSTPWTFGGGTKLEIKR
notes: Murine IgG1/kappa hybridoma antibody; also called 2-3B2 anti-IL-6 antibody
- binding result (murine IL-6): no binding
- potency for inhibiting IL-6 induced phosphorylation of STAT3, relative to 4-4E6 (human IL-6): ~100 fold

B3: chimeric 4C9 antibody (chimeric anti-TNF-α clone 6A9) (antibody, V domains shown)
VH: B1 VH
VL: B1 VL
notes: also called cIgG-anti-TNF-α
- binding result (Cynomolgus monkey TNF-α): binds
